Here are results for 16 molecules from patent publication US20140087995A1 (published 2014).

T1: human calcitonin receptor (human, UniProt P30988 25-474)
T1 sequence (looked up): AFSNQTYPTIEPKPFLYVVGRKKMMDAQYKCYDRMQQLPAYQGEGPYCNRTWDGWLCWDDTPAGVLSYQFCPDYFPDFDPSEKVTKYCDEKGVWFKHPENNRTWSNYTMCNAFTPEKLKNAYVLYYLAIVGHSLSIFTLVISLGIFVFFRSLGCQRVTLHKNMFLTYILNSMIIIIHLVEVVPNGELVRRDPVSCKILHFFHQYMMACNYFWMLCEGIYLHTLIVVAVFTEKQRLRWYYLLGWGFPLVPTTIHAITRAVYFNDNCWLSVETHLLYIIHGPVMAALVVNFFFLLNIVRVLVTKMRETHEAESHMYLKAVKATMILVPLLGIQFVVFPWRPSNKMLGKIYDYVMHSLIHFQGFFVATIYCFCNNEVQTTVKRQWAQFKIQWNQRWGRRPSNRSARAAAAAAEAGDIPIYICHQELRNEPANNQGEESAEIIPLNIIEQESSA

T2: human amylin 3(a) receptor (human calcitonin receptor co-expressed with RAMP-3) (human, UniProt P30988 25-474; O60896 24-148, limits assumed)
T2 sequence (looked up) 1: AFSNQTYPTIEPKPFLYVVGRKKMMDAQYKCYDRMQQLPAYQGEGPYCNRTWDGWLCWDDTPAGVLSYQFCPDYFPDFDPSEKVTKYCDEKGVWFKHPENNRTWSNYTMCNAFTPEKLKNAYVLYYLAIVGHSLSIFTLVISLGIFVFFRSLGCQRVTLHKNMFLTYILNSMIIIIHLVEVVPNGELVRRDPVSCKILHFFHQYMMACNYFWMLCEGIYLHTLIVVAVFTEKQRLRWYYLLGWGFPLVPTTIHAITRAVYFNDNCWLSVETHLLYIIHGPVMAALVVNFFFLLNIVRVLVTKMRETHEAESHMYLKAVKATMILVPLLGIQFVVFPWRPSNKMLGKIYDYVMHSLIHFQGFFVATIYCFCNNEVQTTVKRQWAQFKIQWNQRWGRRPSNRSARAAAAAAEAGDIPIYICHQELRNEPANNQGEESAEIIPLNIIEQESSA
T2 sequence (looked up) 2: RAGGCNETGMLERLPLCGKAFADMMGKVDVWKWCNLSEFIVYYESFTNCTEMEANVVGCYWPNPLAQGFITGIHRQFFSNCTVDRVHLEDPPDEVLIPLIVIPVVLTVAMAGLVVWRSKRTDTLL

B1: N^α1-[(4S)-4-carboxy-4-(19-carboxynonadecanoylamino)butanoyl]-[Glu14,Arg17,Pro21,Pro25,Pro28,Pro29,Pro37]-h-amylin (peptide)
peptide: {C20 diacid-γGlu}-KCNTATCATQRLAEFLRHSSPNFGPILPPTNVGSNTP-NH2
modifications: disulfide 2-7
SMILES: CC[C@H](C)[C@H](NC(=O)[C@@H]1CCCN1C(=O)CNC(=O)[C@H](Cc1ccccc1)NC(=O)[C@H](CC(N)=O)NC(=O)[C@@H]1CCCN1C(=O)[C@H](CO)NC(=O)[C@H](CO)NC(=O)[C@H](Cc1c[nH]cn1)NC(=O)[C@H](CCCNC(=N)N)NC(=O)[C@H](CC(C)C)NC(=O)[C@H](Cc1ccccc1)NC(=O)[C@H](CCC(=O)O)NC(=O)[C@H](C)NC(=O)[C@H](CC(C)C)NC(=O)[C@H](CCCNC(=N)N)NC(=O)[C@H](CCC(N)=O)NC(=O)[C@@H](NC(=O)[C@H](C)NC(=O)[C@@H]1CSSC[C@H](NC(=O)[C@H](CCCCN)NC(=O)CC[C@H](NC(=O)CCCCCCCCCCCCCCCCCCC(=O)O)C(=O)O)C(=O)N[C@@H](CC(N)=O)C(=O)N[C@@H]([C@@H](C)O)C(=O)N[C@@H](C)C(=O)N[C@@H]([C@@H](C)O)C(=O)N1)[C@@H](C)O)C(=O)N[C@@H](CC(C)C)C(=O)N1CCC[C@H]1C(=O)N1CCC[C@H]1C(=O)N[C@H](C(=O)N[C@@H](CC(N)=O)C(=O)N[C@H](C(=O)NCC(=O)N[C@@H](CO)C(=O)N[C@@H](CC(N)=O)C(=O)N[C@H](C(=O)N1CCC[C@H]1C(N)=O)[C@@H](C)O)C(C)C)[C@@H](C)O
notes: also called compound 4
B2: N^α1-[(4S)-4-carboxy-4-(19-carboxynonadecanoylamino)butanoyl]-[Asp14,Arg17,Pro21,Pro27,Pro37]-h-amylin (peptide)
peptide: {C20 diacid-γGlu}-KCNTATCATQRLADFLRHSSPNFGAIPSSTNVGSNTP-NH2
modifications: disulfide 2-7
SMILES: CC[C@H](C)[C@H](NC(=O)[C@H](C)NC(=O)CNC(=O)[C@H](Cc1ccccc1)NC(=O)[C@H](CC(N)=O)NC(=O)[C@@H]1CCCN1C(=O)[C@H](CO)NC(=O)[C@H](CO)NC(=O)[C@H](Cc1c[nH]cn1)NC(=O)[C@H](CCCNC(=N)N)NC(=O)[C@H](CC(C)C)NC(=O)[C@H](Cc1ccccc1)NC(=O)[C@H](CC(=O)O)NC(=O)[C@H](C)NC(=O)[C@H](CC(C)C)NC(=O)[C@H](CCCNC(=N)N)NC(=O)[C@H](CCC(N)=O)NC(=O)[C@@H](NC(=O)[C@H](C)NC(=O)[C@@H]1CSSC[C@H](NC(=O)[C@H](CCCCN)NC(=O)CC[C@H](NC(=O)CCCCCCCCCCCCCCCCCCC(=O)O)C(=O)O)C(=O)N[C@@H](CC(N)=O)C(=O)N[C@@H]([C@@H](C)O)C(=O)N[C@@H](C)C(=O)N[C@@H]([C@@H](C)O)C(=O)N1)[C@@H](C)O)C(=O)N1CCC[C@H]1C(=O)N[C@@H](CO)C(=O)N[C@@H](CO)C(=O)N[C@H](C(=O)N[C@@H](CC(N)=O)C(=O)N[C@H](C(=O)NCC(=O)N[C@@H](CO)C(=O)N[C@@H](CC(N)=O)C(=O)N[C@H](C(=O)N1CCC[C@H]1C(N)=O)[C@@H](C)O)C(C)C)[C@@H](C)O
notes: also called compound 10

Numbered stars: 1 amine (or outer) side, 2 acyl side, 3 side chain; on linkers, the order of the positions; unused ones are H or OH. Bridge positions count the residues as written; N and C are the ends. Side chains are listed from the residue outwards. Ends that are not written are not given here. * marks the point of attachment. C20 diacid = O=C(O)CCCCCCCCCCCCCCCCCCC(=O)*; γGlu = O=C(O)[C@H](CCC(=O)[*:2])N[*:1]; AEEA = NCCOCCOCC(=O)O

For the first experiment, the target named is T1, human calcitonin receptor. The experiment in a line: cell-based or functional assay.
For K([γGlu-γGlu-C20 diacid])CNTATCATQRLAEFLRHSSNNPGAILSSTNVGPETY-NH2 (disulfide 2-7 (inferred)), the “Ratio hCT/hAmylin funct.” value stood at 17.3.

The target of a further experiment is T2, human amylin 3(a) receptor (human …). The experiment in a line: cell-based or functional assay.
Take B1: the “Ratio hCT/hAmylin funct.” value stood at 1.2.
Take K([γGlu-γGlu-C20 diacid])CNTATCATQRLAEFLRHSSPNFGAIPSSTNVGSNTP-NH2 (disulfide 2-7 (inferred), also called compound 13): the “Ratio hCT/hAmylin funct.” value came out at 2.2.
As for K([γGlu-C20 diacid])CNTATCATQRLAEFLRHSSPNFGAIPSSTNVGSNTP-NH2 (disulfide 2-7 (inferred), also called compound 12), the “Ratio hCT/hAmylin funct.” value is 1.8.
{C20 diacid-γGlu-γGlu}-KCNTATCATQRLAEFLRHSSPNFGAIPSSTNVGSNTP-NH2 (disulfide 2-7 (inferred), also called compound 14): the “Ratio hCT/hAmylin funct.” value amounted to 1.6.
Regarding {C20 diacid-γGlu-AEEA-AEEA}-KCNTATCATQRLAEFLRHSSPNFGAIPSSTNVGSNTP-NH2 (disulfide 2-7 (inferred), also called compound 20), the “Ratio hCT/hAmylin funct.” value worked out at 3.6.
For the molecule {C20 diacid-γGlu}-KCNTATCATQRLAEFLRHSSPNFGAIPSSTNVGSNTP-NH2 (disulfide 2-7 (inferred), also called compound 8), the “Ratio hCT/hAmylin funct.” value was determined as 1.1.
B2: the “Ratio hCT/hAmylin funct.” value was 1.
As for {C20 diacid-γGlu}-KCNTATCATQRLAEFLRHSSPNFGAIPSSTNVGSETY-NH2 (disulfide 2-7 (inferred), also called compound 22), the “Ratio hCT/hAmylin funct.” value worked out at 3.8.
Consider K([γGlu-C20 diacid])CNTATCATQRLAEFLRHSSPNFGAIPSSTNVGPNTP-NH2 (disulfide 2-7 (inferred)), for which the “Ratio hCT/hAmylin funct.” value turned out to be 0.9.
Consider {C20 diacid-γGlu}-KCNTATCATQRLAEFLRHSSPNFGAILPSTNVGSETY-NH2 (disulfide 2-7 (inferred), also called compound 33), for which the “Ratio hCT/hAmylin funct.” value came out at 2.2.
Turning to K([γGlu-C20 diacid])CNTATCATQRLAHFLRHSSPNFGAIPSSTNVGPNTP-NH2 (disulfide 2-7 (inferred)), the “Ratio hCT/hAmylin funct.” value turned out to be 0.8.
Regarding {C20 diacid-γGlu}-KCNTATCATQRLAEFLRHSSPNFGAIPSSTNVGSDTP-NH2 (disulfide 2-7 (inferred), also called compound 11), the “Ratio hCT/hAmylin funct.” value came out at 0.9.
As to {C20 diacid-γGlu}-KCNTATCATQRLAEFLRHSSPNFGAPLSSTNVGSNTP-NH2 (disulfide 2-7 (inferred), also called compound 5), the “Ratio hCT/hAmylin funct.” value was determined as 1.
For the molecule {C20 diacid-γGlu}-GRCNTATCATQRLAHFLRHSSPNFGAIPSSTNVGPNTY-NH2 (disulfide 3-8 (inferred)), the “Ratio hCT/hAmylin funct.” value came out at 2.9.
{C20 diacid-γGlu}-GRCNTATCATQRLAAFLRHSSPNFGAIPSSTNVGPNTY-NH2 (disulfide 3-8 (inferred)): the “Ratio hCT/hAmylin funct.” value was determined as 2.1.
